The target in series [1] is T1, BLBlaI-NTD (Bacillus licheniformis, UniProt P06555 1-82).
T1 sequence: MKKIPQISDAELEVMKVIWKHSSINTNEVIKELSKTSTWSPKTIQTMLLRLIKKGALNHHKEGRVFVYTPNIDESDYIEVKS
Description: NMR titration.

The target of series [2] is T2, SAMecI-NTD (Staphylococcus aureus, UniProt P68261 1-83).
T2 sequence: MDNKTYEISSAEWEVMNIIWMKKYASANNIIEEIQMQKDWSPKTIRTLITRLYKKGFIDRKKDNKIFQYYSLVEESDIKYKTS
Description: NMR titration.

B1: 1/2OP1blaP (dsDNA)
DNA 1: AAAGTATTACAT
DNA 2: ATGTAATACTTT
As usually defined, the Kd is the constant that tells how readily two partners part at equilibrium. With B1, the Kd in series [1] was 190 ± 50 µM; in series [2], 860 ± 80 µM.

Values taken from PMC1935004.
